Data as given in publication PMC12661434.

Target: StayRose (His-tagged StayGold bearing 3-aminotyrosine at Y58) (Cytaeis uchidae)
Test: SEC; Superdex 75 Increase 10/300 GL, 20 mM Hepes, 150 mM NaCl, pH 7.5, 0.8 ml/min; ~1 mg/ml (38 uM) protein loaded via a 0.5 ml loop

Substance: StayRose (His-tagged StayGold bearing 3-aminotyrosine at Y58)
- stoichiometry N: 2
